According to article PMC4138556:

Target: D/D domain of human regulatory RIIα subunits of PKA (human)
Assay: AlphaScreen or HTRF

Sequence of D/D domain of human regulatory RIIα subunits of PKA (human) (P13861 2-44): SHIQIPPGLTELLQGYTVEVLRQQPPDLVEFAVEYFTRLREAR

Substance: peptide AKAP18δ-L314E
- IC50: 12.7 nM
